Target: KS17 N2 NA (recombinant N2 neuraminidase head of H3N2 A/Kansas/14/2017) (Influenza A virus H3N2 A/Kansas/14/2017)
Assay: cryo-EM structure

Q: For “KS17 N2 NA (recombinant N2 neuraminidase head of H3N2 A/Kansas/14/2017) (enzyme)”, which stoichiometry N is on record?
A: 4
